This passage reports binding results from paper PMC8524982.

For this data set, the system named is T1, His6-OsnR (Corynebacterium glutamicum), ORF:93dbb295.
T1 sequence: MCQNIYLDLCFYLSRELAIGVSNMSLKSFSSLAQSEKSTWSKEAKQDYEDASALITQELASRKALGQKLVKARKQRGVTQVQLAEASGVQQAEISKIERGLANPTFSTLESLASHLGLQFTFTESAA
Briefly: EMSA. The following applies: 20 mM HEPES pH 7.4, 2.5 mM MgCl2, 75 mM KCl, 0.5 mM EDTA, 2 mM DTT, 10% glycerol, 1 ug poly d(I-C), 100 ng/ul BSA; 30 ng DNA in 20 ul, 30 C, 30 min; 5% PAGE …. On the technique in general: A gel shift assay detects complexes by their altered migration in electrophoresis.
With “ACCGCTTCTAAGCACCCAACTCGCCAAAACTAGGACAACAGGTCGCCGCAGACAGTCGACCGCTTAAAACGCCACACAGCACCCCACTTCACATAACCCCAAGTCGGAAACAAAAGCCCCCAACCTGCACAGATGTCAACTATTTCAACCAGCCAGAAACTATCTCCAAAAGCTAATAAAACCCTTGCACTGACAAATAAGGCGACCTACCATGACTCTGTTTCCAACACATAAAAAGGATAAAAAATGTCACTTTCAGTCGTCGAGGCG (double strand) [cg0404 promoter]”, the binding result is recorded as “no binding”.

Regarding “CAAGCGTGGGGATTCCTGGCTCGATGCTCATGCTTCACTTCCTTATCTTTTGAAACCATGTGCAGCTGTTTTTCTCTTCATTTTTCTCTTCATACACTGACACAGTTCAACTCAATCAAATAGTCAACTATGCAAGGTAGTCGACTATGTGGCATAGTCGCCATAGTTGAGTTTTATTCATGGCTTTTAGCTAGGCGACTTTAGTTGAGGGCTTTTAGTTGAGGGCTTCCCAGCAGGGATGGTTAAGGAGAATTCAGTGAACCAACAGAGTAAAAAGTGGCTCGTACCGACACTGGT (double strand) [cg0026 promoter]”, the binding result is recorded as “binds”.

As for “GGCGAGGCCACGTTCAATCTTGCTTATTTCTGCCTGTTGGACTCCAGAAGCTTCAGCAAGTTGAACTTGGGTGACTCCTCGTTGTTTCCGAGCCTTGACTAGTTTTTGGCCAAGAGCTTTTCGTGAGGCGAGTTCTTGAGTGATTAGCGCGGAAGCGTCCTCGTAATCTTG (double strand) [osnR ORF (+110 to +286)]”, the binding result is on record as “no binding”.

For “GGCTGCTCAGACATAAGATGTGCTCCTAATTTAGAAATCGGATGTGGGCTGGACTGGGAAGGCAACTAACTGGTGCTTTGTCGTCCACGTATCTCAACGCATATGACTATAAAAAGCTTCCCAAGTACCAGTTCAGTCTATAATTCGCGGTGTTATTGAGATGGTTTGAGGCTGGAAAGCTTCGATTGCAGCCAGTTGTTGAGTACTTCAGAGGCGTGATCTCTGGCGGGTTTCCTTGAGAGGAAAATATCGTGGCGAGCGTTGTCGATGAT (double strand) [mtr promoter]”, the binding entry is “no binding”.

“TTTGGTGGTGGGCAATGCTGCGACCATCTTTATGAATCTCATTGGCTGCCGGGAAGGCCGCGACCCCTTGCTGCTCATCGCGGTTCTCACGTTCCCGCTGTATTGGCTGCTCATGAGCATTGCAGCGTTGAAAGGCACGTGGCAATTGATCACGCGACCATCCTATTGGGAGAAAACTGCCCACGGATTGGAGGCGTAAGCGGTGCCCATCGTCAAACCAATGCCGGCACTG (double strand) [cg0165 promoter]”: the binding entry is on record as “binds”.
